According to the Immune Epitope Database (IEDB):

molecular target: HLA-A*02:01; assay: IEDB peptide-MHC binding, purified MHC/competitive/radioactivity; ≥ and ≤ were set here for values at or beyond the usual limits of such assays; details: source organism: Bordetella pertussis

Row | Sequence | IC50 [µM]
1 | HLSPALADV | 0.444
2 | STYELLDYL | 8.01

molecular target: HLA-B*57:01; assay: as above; details: source organism: Bordetella pertussis

Row | Sequence | IC50 [µM]
3 | EKRLDIDDA | ≥ 70.4
4 | NNETMSGRQ | ≥ 70.4
5 | TVVQRNKHW | ≥ 70.4
6 | VTSVAMKPY | 9.09

molecular target: HLA-B*53:01; assay: as above; details: source organism: Bordetella pertussis

Row | Sequence | IC50 [µM]
7 | ASSPDAHVP | 52.3
8 | FIYRETFCI | 6.63
9 | LSAALGADW | 1.69
10 | TVVQRNKHW | 69.9
11 | VGAGGYEAG | 69.9
12 | VSGGSLSAP | 54.5
13 | YAEHGEVSI | 11.4

molecular target: HLA-B*35:01; assay: as above; details: source organism: Bordetella pertussis

Row | Sequence | IC50 [µM]
14 | LAARGDGAL | 69.9
15 | YAIDGTAAG | 2.33

molecular target: HLA-B*07:02; assay: as above; details: source organism: Bordetella pertussis

Row | Sequence | IC50 [µM]
16 | LAARGDGAL | 6.34
17 | QQLKQADRD | 69.6

molecular target: HLA-B*44:03; assay: as above; details: source organism: Bordetella pertussis

Row | Sequence | IC50 [µM]
18 | AEGGATLGA | 12
19 | LSAALGADW | 1.17
20 | MEVMLRAVF | 0.0115
